Reference: US5637476

Biological target: T1, SfiI modification methylase (M.SfiI) (Streptomyces fimbriatus) (UniProt O52513)
T1 sequence: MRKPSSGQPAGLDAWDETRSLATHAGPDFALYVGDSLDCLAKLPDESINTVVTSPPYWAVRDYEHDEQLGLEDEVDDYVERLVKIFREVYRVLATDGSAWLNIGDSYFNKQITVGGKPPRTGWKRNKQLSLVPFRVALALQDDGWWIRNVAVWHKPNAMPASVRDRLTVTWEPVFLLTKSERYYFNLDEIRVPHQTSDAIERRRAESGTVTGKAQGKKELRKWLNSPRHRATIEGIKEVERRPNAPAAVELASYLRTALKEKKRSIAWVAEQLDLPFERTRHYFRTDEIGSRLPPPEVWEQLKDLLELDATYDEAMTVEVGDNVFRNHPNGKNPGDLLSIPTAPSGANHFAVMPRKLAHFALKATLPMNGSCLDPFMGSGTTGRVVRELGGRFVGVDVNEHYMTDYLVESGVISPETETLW
Assay: inhibition
Conditions: protection from SfiI cleavage; 10 mM EDTA, 0.1 mM AdoMet, 37 C; 0.3M and 0.5M KCl fractions

Substance T4 DNA has an activity of 2500 units/ml.
